Target: FLAG-tagged BVLF1 (Epstein-Barr virus)
Assay: co-IP; FLAG-tagged BVLF1 as bait with BFRF2 together with BGLF3 or BGLF3(T42A) in 2089 cells; anti-FLAG M2 agarose; anti-Myc blot; quantitation from two independent experiments

B1: BFRF2 (natural protein)
chain: MALFLARHTLSGTGAGCHGRGPAPDVSEVDLTLQALGERGFSRLLDLGLACLDLSYVEMREFVVWGRPPASEAAVASTPGSLFRSHSSAYWLSEVERPGGLVRWARSQTSPSSLTLAPHLGPSLLSLSVVTGGGCGAVAFCNAFFLAYFLVVRSVFPAFSDRIAAWICDRSPFCENTRAVARGYRGLVKRFLAFVFERSSYDPPLLRQNSRPVERCFAIKNYVPGLDSQSCVTVPSFSRWAQSHASELDPREIRDRVTPATAPSFVADHASALLASLQKKASDTPCGNPIQWMWYRLLVNSCLRSAHCLLPIPAVSEGGRKTGGGVGEELVGAGGPCLSRDVFVAIVSRNVLSCLLNVPAAGPRAYKCFRSHASRPVSGPDYPPLAVFCMDCGYCLNFGKQTGVGGRLNSFRPTLQFYPRDQKEKHVLTCHASGRVYCSNCGSAAVGCQRLAEPPSARSGWRPRIRAVLPHNAAYELDRGSRLLDAIIPCLGPDRTCMRPVVLRGVTVRQLLYLTLRTEARAVCSICQQRQAPEDARDEPHLFSSCLEVELPPGERCAGCRLYQTRYGTPAAQAHPPGEAGGGFSRQSPAS
fold increase of the BVLF1-BFRF2 interaction with wild type BGLF3 relative to no BGLF3: 6 fold
